In IntAct's records for PubMed 25910212:

B1: Arylsulfatase A (Homo sapiens), P15289 (parent)
chain: MGAPRSLLLALAAGLAVARPPNIVLIFADDLGYGDLGCYGHPSSTTPNLDQLAAGGLRFTDFYVPVSLCTPSRAALLTGRLPVRMGMYPGVLVPSSRGGLPLEEVTVAEVLAARGYLTGMAGKWHLGVGPEGAFLPPHQGFHRFLGIPYSHDQGPCQNLTCFPPATPCDGGCDQGLVPIPLLANLSVEAQPPWLPGLEARYMAFAHDLMADAQRQDRPFFLYYASHHTHYPQFSGQSFAERSGRGPFGDSLMELDAAVGTLMTAIGDLGLLEETLVIFTADNGPETMRMSRGGCSGLLRCGKGTTYEGGVREPALAFWPGHIAPGVTHELASSLDLLPTLAALAGAPLPNVTLDGFDLSPLLLGTGKSPRQSLFFYPSYPDEVRGVFAVRTGKYKAHFFTQGSAHSDTTADPACHASSSLTAHEPPLLYDLSKDPGENYNLLGGVAGATPEVLQALKQLQLLKAQLDAAVTFGPSQVARGEDPALQICCHPGCTPRPACCHCPDPHA
partner: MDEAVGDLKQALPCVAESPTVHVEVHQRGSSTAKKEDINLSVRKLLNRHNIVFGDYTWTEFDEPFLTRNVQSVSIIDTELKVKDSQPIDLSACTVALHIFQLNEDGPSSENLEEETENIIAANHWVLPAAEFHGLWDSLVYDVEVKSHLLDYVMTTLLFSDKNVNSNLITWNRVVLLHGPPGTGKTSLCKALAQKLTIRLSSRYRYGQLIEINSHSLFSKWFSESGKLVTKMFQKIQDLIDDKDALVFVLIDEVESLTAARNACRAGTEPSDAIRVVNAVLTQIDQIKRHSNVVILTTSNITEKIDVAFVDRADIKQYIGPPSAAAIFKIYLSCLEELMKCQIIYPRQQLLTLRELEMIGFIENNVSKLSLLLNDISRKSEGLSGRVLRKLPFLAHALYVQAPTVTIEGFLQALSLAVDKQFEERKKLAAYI
B2: Zinc finger protein 41 (Homo sapiens), P51814-6 (parent)
chain: MAANGDSPPWSPALAAEGRGSSCEASVSFEDVTVDFSKEEWQHLDPAQRRLYWDVTLENYSHLLSVGYQIPKSEAAFKLEQGEGPWMLEGEAPHQSCSGEAIGKMQQQGIPGGIFFHCERFDQPIGEDSLCSILEELWQDNDQLEQRQENQNNLLSHVKVLIKERGYEHKNIEKIIHVTTKLVPSIKRLHNCDTILKHTLNSHNHNRNSATKNLGKIFGNGNNFPHSPSSTKNENAKTGANSCEHDHYEKHLSHKQAPTHHQKIHPEEKLYVCTECVMGFTQKSHLFEHQRIHAGEKSRECDKSNKVFPQKPQVDVHPSVYTGEKPYLCTQCGKVFTLKSNLITHQKIHTGQKPYKCSECGKAFFQRSDLFRHLRIHTGEKPYECSECGKGFSQNSDLSIHQKTHTGEKHYECNECGKAFTRKSALRMHQRIHTGEKPYVCADCGKAFIQKSHFNTHQRIHTGEKPYECSDCGKSFTKKSQLHVHQRIHTGEKPYICTECGKVFTHRTNLTTHQKTHTGEKPYMCAECGKAFTDQSNLIKHQKTHTGEKPYKCNGCGKAFIWKSRLKIHQKSHIGERHYECKDCGKAFIQKSTLSVHQRIHTGEKPYVCPECGKAFIQKSHFIAHHRIHTGEKPYECSDCGKCFTKKSQLRVHQKIHTGEKPNICAECGKAFTDRSNLITHQKIHTREKPYECGDCGKTFTWKSRLNIHQKSHTGERHYECSKCGKAFIQKATLSMHQIIHTGKKPYACTECQKAFTDRSNLIKHQKMHSGEKRYKASD
B3: Carbonyl reductase [NADPH] 3 (Homo sapiens), O75828 (parent)
chain: MSSCSRVALVTGANRGIGLAIARELCRQFSGDVVLTARDVARGQAAVQQLQAEGLSPRFHQLDIDDLQSIRALRDFLRKEYGGLNVLVNNAAVAFKSDDPMPFDIKAEMTLKTNFFATRNMCNELLPIMKPHGRVVNISSLQCLRAFENCSEDLQERFHSETLTEGDLVDLMKKFVEDTKNEVHEREGWPNSPYGVSKLGVTVLSRILARRLDEKRKADRILVNACCPGPVKTDMDGKDSIRTVEEGAETPVYLALLPPDATEPQGQLVHDKVVQNW
B4: Fibulin-5 (Homo sapiens), Q9UBX5 (parent)
chain: MPGIKRILTVTILALCLPSPGNAQAQCTNGFDLDRQSGQCLDIDECRTIPEACRGDMMCVNQNGGYLCIPRTNPVYRGPYSNPYSTPYSGPYPAAAPPLSAPNYPTISRPLICRFGYQMDESNQCVDVDECATDSHQCNPTQICINTEGGYTCSCTDGYWLLEGQCLDIDECRYGYCQQLCANVPGSYSCTCNPGFTLNEDGRSCQDVNECATENPCVQTCVNTYGSFICRCDPGYELEEDGVHCSDMDECSFSEFLCQHECVNQPGTYFCSCPPGYILLDDNRSCQDINECEHRNHTCNLQQTCYNLQGGFKCIDPIRCEEPYLRISDNRCMCPAENPGCRDQPFTILYRDMDVVSGRSVPADIFQMQATTRYPGAYYIFQIKSGNEGREFYMRQTGPISATLVMTRPIKGPREIQLDLEMITVNTVINFRGSSVIRLRIYVSQYPF
B5: Acetylcholine receptor subunit gamma (Homo sapiens), P07510-2 (parent)
chain: MHGGQGPLLLLLLLAVCLGAQGRNQEERLLADLMQNYDPNLRPAERDSDVVNVSLKLTLTNLISLNEREEALTTNVWIEMQWCDYRLRWDPRDYEGLWVLRVPSTMVWRPDIVLENKSQTYSTNEIDLQLSQEDGQTIEWIFIDPEAFTENGEWAIQHRPAKMLLDPAAPAQEAGHQKVVFYLLIQRKPLFYVINIIAPCVLISSVAILIHFLPAKAGGQKCTVAINVLLAQTVFLFLVAKKVPETSQAVPLISKYLTFLLVVTILIVVNAVVVLNVSLRSPHTHSMARGVRKVFLRLLPQLLRMHVRPLAPAAVQDTQSRLQNGSSGWSITTGEEVALCLPRSELLFQQWQRQGLVAAALEKLEKGPELGLSQFCGSLKQAAPAIQACVEACNLIACARHQQSHFDNGNEEWFLVGRVLDRVCFLAMLSLFICGTAGIFLMAHYNRVPALPFPGDPRPYLPSPD
partner: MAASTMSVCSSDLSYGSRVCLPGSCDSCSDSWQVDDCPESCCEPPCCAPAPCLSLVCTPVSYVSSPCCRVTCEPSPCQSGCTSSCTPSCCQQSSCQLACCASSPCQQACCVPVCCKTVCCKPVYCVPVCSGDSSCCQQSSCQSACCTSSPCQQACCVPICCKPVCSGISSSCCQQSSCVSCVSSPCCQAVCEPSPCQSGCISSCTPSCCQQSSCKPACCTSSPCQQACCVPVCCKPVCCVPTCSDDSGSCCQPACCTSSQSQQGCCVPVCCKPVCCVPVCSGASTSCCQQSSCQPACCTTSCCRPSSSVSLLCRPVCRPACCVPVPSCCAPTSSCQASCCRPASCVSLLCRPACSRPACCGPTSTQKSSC
B6: Chorion-specific transcription factor GCMb (Homo sapiens), O75603 (parent)
chain: MPAAAVQEAVGVCSYGMQLSWDINDPQMPQELALFDQFREWPDGYVRFIYSSDEKKAQRHLSGWAMRNTNNHNGHILKKSCLGVVVCTQACTLPDGSRLQLRPAICDKARLKQQKKACPNCHSALELIPCRGHSGYPVTNFWRLDGNAIFFQAKGVHDHPRPESKSETEARRSAIKRQMASFYQPQKKRIRESEAEENQDSSGHFSNIPPLENPEDFDIVTETSFPIPGQPCPSFPKSDVYKATCDLATFQGDKMPPFQKYSSPRIYLPRPPCSYELANPGYTNSSPYPTLYKDSTSIPNDTDWVHLNTLQCNVNSYSSYERSFDFTNKQHGWKPALGKPSLVERTNHGQFQAMATRPYYNPELPCRYLTTPPPGAPALQTVITTTTKVSYQAYQPPAMKYSDSVREVKSLSSCNYAPEDTGMSVYPEPWGPPVTVTRAASPSGPPPMKIAGDCRAIRPTVAIPHEPVSSRTDEAETWDVCLSGLGSAVSYSDRVGPFFTYNNEDF
partner: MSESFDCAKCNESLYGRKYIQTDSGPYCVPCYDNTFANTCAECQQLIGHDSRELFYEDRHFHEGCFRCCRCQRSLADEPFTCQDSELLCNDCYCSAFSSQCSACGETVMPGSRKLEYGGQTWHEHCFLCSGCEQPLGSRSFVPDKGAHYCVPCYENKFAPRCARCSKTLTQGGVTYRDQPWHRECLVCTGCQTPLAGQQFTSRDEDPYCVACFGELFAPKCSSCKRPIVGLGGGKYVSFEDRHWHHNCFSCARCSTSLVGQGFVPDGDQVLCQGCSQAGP

Variants of: B1
Settings: with pch2_human TRIP13, Q15645

| effect of a mutation on the interaction | Variant |
| --- | --- |
| with no effect | Y201C |

Variants of: B2
Settings: with fam9b_human FAM9B

| effect of a mutation on the interaction | Variant |
| --- | --- |
| disrupting interaction strength | P111L |
| with no effect | I125R |
| with no effect | C301R |

Variants of: B3
Settings: with sdcb1_human SDCBP

| effect of a mutation on the interaction | Variant |
| --- | --- |
| disrupting interaction strength | V244M |

Variants of: B4
Settings: with otx1_human OTX1, P32242
Chain of otx1_human OTX1, P32242 (P32242 whole entry): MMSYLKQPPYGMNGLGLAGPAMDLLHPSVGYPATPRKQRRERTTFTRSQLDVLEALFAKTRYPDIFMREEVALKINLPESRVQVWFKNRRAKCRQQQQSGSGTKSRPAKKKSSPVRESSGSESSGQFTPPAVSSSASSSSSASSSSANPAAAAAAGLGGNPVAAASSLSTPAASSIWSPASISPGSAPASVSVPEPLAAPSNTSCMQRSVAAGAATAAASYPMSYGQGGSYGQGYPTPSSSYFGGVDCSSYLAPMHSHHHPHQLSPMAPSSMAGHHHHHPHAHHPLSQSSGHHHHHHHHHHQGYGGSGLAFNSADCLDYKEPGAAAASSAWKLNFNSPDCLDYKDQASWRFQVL

| effect of a mutation on the interaction | Variant |
| --- | --- |
| disrupting interaction strength | V60L |

Variants of: B4
Settings: with meox2_human MEOX2, P50222
Chain of meox2_human MEOX2, P50222 (P50222 whole entry): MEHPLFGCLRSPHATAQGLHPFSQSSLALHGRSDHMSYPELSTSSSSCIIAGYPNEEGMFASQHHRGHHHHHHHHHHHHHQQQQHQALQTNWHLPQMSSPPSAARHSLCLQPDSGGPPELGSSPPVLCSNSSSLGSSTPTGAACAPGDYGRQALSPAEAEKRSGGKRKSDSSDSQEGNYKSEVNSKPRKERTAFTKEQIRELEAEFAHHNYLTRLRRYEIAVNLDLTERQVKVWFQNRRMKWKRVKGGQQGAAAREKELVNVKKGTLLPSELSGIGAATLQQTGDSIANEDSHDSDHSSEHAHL

| effect of a mutation on the interaction | Variant |
| --- | --- |
| disrupting interaction strength | V60L |

Variants of: B5
Settings: with kr107_human KRTAP10-7, P60409

| effect of a mutation on the interaction | Variant |
| --- | --- |
| disrupting interaction strength | R86C |

Variants of: B6
Settings: with fhl3_human FHL3, Q13643

| effect of a mutation on the interaction | Variant |
| --- | --- |
| disrupting interaction strength | R47L |
| with no effect | G203S |
